Assays:
Conditions in all cases: chain copies: 2 (homodimer, stated)
[1] = target: T1, NF-kB p50 homodimer (UniProt P19838 P19838:1-433); test: competition; inhibits p65/p65 and p50/p50 equally; nonspecific stickiness
[2] = target: T2, NF-kB p65 (RelA) homodimer (UniProt Q04206 Q04206:1-551); test: as above
[3] = target: T2, NF-kB p65 (RelA) homodimer; test: EMSA; p65 homodimer
[4] = target: T1, NF-kB p50 homodimer; test: EMSA; stated as sub-nM

T1 sequence (P19838 1-433, one chain of several): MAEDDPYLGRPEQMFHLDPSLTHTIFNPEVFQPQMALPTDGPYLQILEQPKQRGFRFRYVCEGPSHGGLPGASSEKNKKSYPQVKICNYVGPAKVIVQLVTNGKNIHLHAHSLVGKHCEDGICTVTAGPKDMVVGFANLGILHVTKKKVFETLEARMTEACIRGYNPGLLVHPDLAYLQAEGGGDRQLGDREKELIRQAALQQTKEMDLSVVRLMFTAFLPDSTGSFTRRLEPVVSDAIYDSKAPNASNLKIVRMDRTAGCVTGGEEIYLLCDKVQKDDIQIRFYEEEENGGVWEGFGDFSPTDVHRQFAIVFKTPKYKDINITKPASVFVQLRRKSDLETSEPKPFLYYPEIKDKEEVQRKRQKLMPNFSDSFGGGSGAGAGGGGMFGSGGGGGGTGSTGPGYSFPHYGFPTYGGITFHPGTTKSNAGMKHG
T2 sequence (Q04206 whole entry, one chain of several): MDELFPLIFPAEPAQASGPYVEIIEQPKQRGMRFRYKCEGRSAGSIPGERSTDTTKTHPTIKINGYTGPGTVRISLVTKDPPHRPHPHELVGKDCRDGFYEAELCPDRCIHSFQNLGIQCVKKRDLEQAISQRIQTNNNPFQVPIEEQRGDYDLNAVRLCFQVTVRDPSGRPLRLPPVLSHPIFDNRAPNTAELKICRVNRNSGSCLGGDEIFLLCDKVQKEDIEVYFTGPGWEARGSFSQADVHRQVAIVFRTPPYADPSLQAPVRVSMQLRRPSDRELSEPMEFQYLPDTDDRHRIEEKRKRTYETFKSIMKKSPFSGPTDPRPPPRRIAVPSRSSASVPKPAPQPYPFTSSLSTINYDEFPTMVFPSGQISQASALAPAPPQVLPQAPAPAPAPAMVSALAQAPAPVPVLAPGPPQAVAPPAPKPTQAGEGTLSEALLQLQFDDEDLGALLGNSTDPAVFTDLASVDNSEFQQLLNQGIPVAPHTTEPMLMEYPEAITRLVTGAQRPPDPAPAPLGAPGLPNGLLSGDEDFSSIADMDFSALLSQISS

Row | Binder | binding result [1] | binding result [2] | Kd [3] [nM] | Kd [4] [nM]
1 | CK-1 42-mer full phosphorothioate (dsDNA, full PS) DNA 1: CCAGGAGATTCCACCCAGGAGATTCCACCCAGGAGATTCCAC DNA 2: GTGGAATCTCCTGGGTGGAATCTCCTGGGTGGAATCTCCTGG | binds | binds | – | –
2 | XBY-6 (dsDNA, 6 phosphorodithioate (S2) linkages: 5'-…2TS2CCAC-3' / 3'-GGS2TCCS2TCS2TAAGGS2TG-5') DNA 1: CCAGGAGATTCCAC DNA 2: GTGGAATCTCCTGG | – | – | 1.4 | < 1
